Assay results from patent publication US7038022, “Multimeric forms of members of the steroid/thyroid superfamily of receptors” (The Salk Institute for Biological Studies).

Tests used:
[1] = biological target: T1, RAR/RXR heterodimer (UniProt P10276;P19793 P10276:1-462,P19793:1-462); experiment: EMSA; high affinity; 10-fold excess of unlabeled site competes; details: label: 32P
[2] = biological target: T2, COUP-TF/RXRalpha heterodimer (UniProt P10589;P19793 P10589:1-423,P19793:1-462); experiment: EMSA; supershift data similar to DR-1; details: tags: RXR as GST fusion; label: 32P
[3] = biological target: T1, RAR/RXR heterodimer; experiment: EMSA; high affinity; also competes for CRBPII-RXRE binding; details: label: 32P
[4] = biological target: T2, COUP-TF/RXRalpha heterodimer; experiment: EMSA; heterodimer favored over homodimers; supershifted by RXR antiserum; details: tags: RXR as GST fusion; label: 32P
Procedure: (§1) Bacterial-expressed COUP-TF and RXR-glutathione-S-transferase fusion protein (RXR-GST) were mixed and the resulting complexes analyzed by gel mobility shift assays using ^32P-labeled DR-1 oligonucleotide (i e., SEQ ID No. 21) as probe. The larger RXR fusion protein was used in order to maximize the migratory differences observed between the COUP-TF and RXR complexes.
(§2) Gel mobility shift assays were performed using ^32P-labeled DR-1 oligonucleotide (SEQ ID No. 21) in the presence of partially-purified COUP-TF (500 ng) and increasing amounts of partially-purified RXR (1×–50 ng) as indicated in FIG. 1. Either 0.3 μl or 1 μl of RXR-specific antiserum was included in the assays (shown in lanes 11 and 12, respectively). The positions of the RXR-specific and COUP-TF-specific complexes are indicated in FIG. 1 by a plain line ("–"). […] The free probe was run off the gel and is not shown.

[5] = biological target: T3, COUP-TF (EAR-3) (UniProt P10589 P10589:1-423); experiment: EMSA; COUP-TF-specific complex, 500 ng protein; details: tags: none, pET-8C bacterial expression, partially purified; label: 32P
T3 sequence: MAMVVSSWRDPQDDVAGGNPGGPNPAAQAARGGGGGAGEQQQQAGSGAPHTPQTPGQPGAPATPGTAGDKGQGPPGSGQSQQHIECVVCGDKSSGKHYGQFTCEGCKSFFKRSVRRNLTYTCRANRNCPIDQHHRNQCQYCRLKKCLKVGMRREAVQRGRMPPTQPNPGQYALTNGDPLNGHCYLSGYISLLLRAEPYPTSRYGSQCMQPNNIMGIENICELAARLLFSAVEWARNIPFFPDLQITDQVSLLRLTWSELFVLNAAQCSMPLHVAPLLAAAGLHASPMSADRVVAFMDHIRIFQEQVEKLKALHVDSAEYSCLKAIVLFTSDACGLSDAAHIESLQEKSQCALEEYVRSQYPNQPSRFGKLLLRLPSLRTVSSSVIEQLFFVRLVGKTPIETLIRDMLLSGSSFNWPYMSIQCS
Procedure: as §1, §2

[6] = biological target: T4, hRARα expressed in cells from RS-hRARα (human, UniProt P10276 1-462); experiment: gel mobility shift, βRARE probe, whole-cell extracts of transfected Cos cells
T4 construct: Intracellular expression; whole cell extracts in the Cos cell gel shifts; also called RS-hRARa; RS-RARα
T4 sequence (looked up): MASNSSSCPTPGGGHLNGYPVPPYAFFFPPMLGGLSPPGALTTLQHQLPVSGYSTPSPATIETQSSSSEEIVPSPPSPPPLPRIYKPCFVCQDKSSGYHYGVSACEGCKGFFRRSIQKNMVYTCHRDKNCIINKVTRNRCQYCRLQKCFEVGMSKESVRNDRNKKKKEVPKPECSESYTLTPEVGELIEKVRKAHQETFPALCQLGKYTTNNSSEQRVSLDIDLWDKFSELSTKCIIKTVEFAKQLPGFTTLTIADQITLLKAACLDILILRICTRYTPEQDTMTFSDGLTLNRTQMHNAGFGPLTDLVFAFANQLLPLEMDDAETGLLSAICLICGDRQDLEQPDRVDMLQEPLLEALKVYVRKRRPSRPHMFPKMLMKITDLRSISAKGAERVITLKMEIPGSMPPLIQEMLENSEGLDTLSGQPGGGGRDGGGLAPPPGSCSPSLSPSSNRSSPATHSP
Procedure: DNA-protein complexes were resolved on a 4% polyacrylamide gel in 0.5×TBE (1×TBE=90 mM Tris, 90 mM boric acid, 2 mM EDTA).

[7] = biological target: the molecule itself; experiment: gel mobility shift, 32P-labeled DR-1 probe

B1: CRBPII-RXRE (dsDNA)
DNA 1: AGCTGTCACAGGTCACAGGTCACAGGTCACAGTTCAAGCT
DNA 2: AGCTTGAACTGTGACCTGTGACCTGTGACCTGTGACAGCT
- binding result [1]: binds

B2: COUP-TF RE (ovalbumin) (dsDNA)
DNA 1: AGCTTGGTGTCAAAGGTCAAACTTAGCT
DNA 2: AGCTAAGTTTGACCTTTGACACCAAGCT
- binding result [2]: binds

B3: βRARE (dsDNA)
DNA 1: AGCTTAAGGGTTCACCGAAAGTTCACTCGCATAGCTGCT
DNA 2: AGCAGCTATGCGAGTGAACTTTCGGTGAACCCTTAAGCT
- binding result [3]: binds

B4: DR-1 (dsDNA)
DNA 1: AGCTTCAGGTCAGAGGTCAGAGAGCT
DNA 2: AGCTCTCTGACCTCTGACCTGAAGCT
- binding result [4]: binds
- binding result [5]: binds

B5: hRXRα expressed in cells from RS-hRXRα (receptor, human, UniProt P19793 1-462, looked up)
chain: MDTKHFLPLDFSTQVNSSLTSPTGRGSMAAPSLHPSLGPGIGSPGQLHSPISTLSSPINGMGPPFSVISSPMGPHSMSVPTTPTLGFSTGSPQLSSPMNPVSSSEDIKPPLGLNGVLKVPAHPSGNMASFTKHICAICGDRSSGKHYGVYSCEGCKGFFKRTVRKDLTYTCRDNKDCLIDKRQRNRCQYCRYQKCLAMGMKREAVQEERQRGKDRNENEVESTSSANEDMPVERILEAELAVEPKTETYVEANMGLNPSSPNDPVTNICQAADKQLFTLVEWAKRIPHFSELPLDDQVILLRAGWNELLIASFSHRSIAVKDGILLATGLHVHRNSAHSAGVGAIFDRVLTELVSKMRDMQMDKTELGCLRAIVLFNPDSKGLSNPAEVEALREKVYASLEAYCKHKYPEQPGRFAKLLLRLPALRSIGLKCLEHLFFFKLIGDTPIDTFLMEMLEAPHQMT
notes: Intracellular expression; whole cell extracts in the Cos cell gel shifts; also called RS-hRXRa
- binding result [6]: binds

B6: RXR-glutathione-S-transferase fusion protein (hRXRα expressed in bacteria as a fusion with glutathione-S-transferase, pGEX-2T) (receptor, human, UniProt P19793 1-462, looked up)
chain: MDTKHFLPLDFSTQVNSSLTSPTGRGSMAAPSLHPSLGPGIGSPGQLHSPISTLSSPINGMGPPFSVISSPMGPHSMSVPTTPTLGFSTGSPQLSSPMNPVSSSEDIKPPLGLNGVLKVPAHPSGNMASFTKHICAICGDRSSGKHYGVYSCEGCKGFFKRTVRKDLTYTCRDNKDCLIDKRQRNRCQYCRYQKCLAMGMKREAVQEERQRGKDRNENEVESTSSANEDMPVERILEAELAVEPKTETYVEANMGLNPSSPNDPVTNICQAADKQLFTLVEWAKRIPHFSELPLDDQVILLRAGWNELLIASFSHRSIAVKDGILLATGLHVHRNSAHSAGVGAIFDRVLTELVSKMRDMQMDKTELGCLRAIVLFNPDSKGLSNPAEVEALREKVYASLEAYCKHKYPEQPGRFAKLLLRLPALRSIGLKCLEHLFFFKLIGDTPIDTFLMEMLEAPHQMT
notes: GST placed N-terminal as in pGEX-2T vectors; also called RXR-GST; GST-RXR; not shown: glutathione-S-transferase encoded by the pGEX-2T expression vector
- binding result [7]: binds

B7: chicken ovalbumin upstream promotor transcription factor (COUP-TF; EAR-3) (receptor, UniProt P10589 1-423, looked up)
chain: MAMVVSSWRDPQDDVAGGNPGGPNPAAQAARGGGGGAGEQQQQAGSGAPHTPQTPGQPGAPATPGTAGDKGQGPPGSGQSQQHIECVVCGDKSSGKHYGQFTCEGCKSFFKRSVRRNLTYTCRANRNCPIDQHHRNQCQYCRLKKCLKVGMRREAVQRGRMPPTQPNPGQYALTNGDPLNGHCYLSGYISLLLRAEPYPTSRYGSQCMQPNNIMGIENICELAARLLFSAVEWARNIPFFPDLQITDQVSLLRLTWSELFVLNAAQCSMPLHVAPLLAAAGLHASPMSADRVVAFMDHIRIFQEQVEKLKALHVDSAEYSCLKAIVLFTSDACGLSDAAHIESLQEKSQCALEEYVRSQYPNQPSRFGKLLLRLPSLRTVSSSVIEQLFFVRLVGKTPIETLIRDMLLSGSSFNWPYMSIQCS
notes: mature; Partially purified bacterial protein in the gel shifts; also called bacterially-expressed COUP-TF; RS-COUP-TF product
- binding result [7]: binds
